Columns and labels:
[1] = ATPase assay (malachite green end-point); format: biochemical, S. cerevisiae; details: 1 mM ATP, 37°C, 5 min, pH 7.4, mean of all runs
Method: The rate of ATP hydrolysis was determined using an end-point method modified from Merrill and Hanson ([Merrill and Hanson, 2010]). Vps4 at the indicated subunit concentration was incubated with 1 mM ATP at 37°C in 20 mM HEPES/NaOH pH 7.4, 100 mM NaCl, 10 mM MgCl2, 1 mM DTT in a total volume of 10 µl. The hydrolysis reaction was stopped after 5 min by the addition of 100 µl of malachite green color reagent (14 mM ammonium molybdate, 1.3 M HCl, 1.5 mM malachite green) and 50 µl of 21% (w/v) citric acid. Absorbance at 650 nm was read using a Biotek Neo Synergy microplate reader and the amount of inorganic phosphate released by the reaction was determined using a sodium phosphate standard curve. Means and standard deviations reported in Figure 1D are from at least three independent experiments using different protein preparations with three or more technical replicates each.

[2] = target: T1, Vps4^101-437 (Saccharomyces cerevisiae, UniProt P52917, L151D); format: binding, S. cerevisiae; details: global fit of replicate titrations over [Vps4 monomer], uM, m1 = 1; L151D mutant; Std. Error 0.218; 95% CI (profile likelihood) 4.01 to 4.887; read-out: Kd (fit to normalized anisotropy data, best-fit value)
T1 construct: 6xHis (TEV-cleavable) (N, cleaved yes); made in house; host or cells: E. coli BL21(DE3)RIL
Method: Fluorescence polarization assay for ESCRT-III peptide binding
When equilibrium was reached, parallel and perpendicular fluorescence intensities were measured on a Biotek Synergy Neo HTS microplate reader using an excitation wavelength of 485 nm and an emission wavelength of 528 nm.

B1: Vps4^101-437: yeast Vps4 construct (residues 101–437) spanning the AAA ATPase cassette (protein, UniProt P52917 101-437, looked up, fragment)
chain: QEEGEDNGGEDNKKLRGALSSAILSEKPNVKWEDVAGLEGAKEALKEAVILPVKFPHLFKGNRKPTSGILLYGPPGTGKSYLAKAVATEANSTFFSVSSSDLVSKWMGESEKLVKQLFAMARENKPSIIFIDEVDALTGTRGEGESEASRRIKTELLVQMNGVGNDSQGVLVLGATNIPWQLDSAIRRRFERRIYIPLPDLAARTTMFEINVGDTPCVLTKEDYRTLGAMTEGYSGSDIAVVVKDALMQPIRKIQSATHFKDVSTEDDETRKLTPCSPGDDGAIEMSWTDIEADELKEPDLTIKDFLKAIKSTRPTVNEDDLLKQEQFTRDFGQEGN
ATPase activity, average ([1]; 0.05 μM Vps4 subunits): -26.1936 ATP/min/Vps4 hexamer
ATPase activity, average ([1]; 1 μM Vps4 subunits): 418.838 ATP/min/Vps4 hexamer

B2: Vps4(101-437) L151D (protein)
chain: QEEGEDNGGEDNKKLRGALSSAILSEKPNVKWEDVAGLEGAKEALKEAVIDPVKFPHLFKGNRKPTSGILLYGPPGTGKSYLAKAVATEANSTFFSVSSSDLVSKWMGESEKLVKQLFAMARENKPSIIFIDEVDALTGTRGEGESEASRRIKTELLVQMNGVGNDSQGVLVLGATNIPWQLDSAIRRRFERRIYIPLPDLAARTTMFEINVGDTPCVLTKEDYRTLGAMTEGYSGSDIAVVVKDALMQPIRKIQSATHFKDVSTEDDETRKLTPCSPGDDGAIEMSWTDIEADELKEPDLTIKDFLKAIKSTRPTVNEDDLLKQEQFTRDFGQEGN
modifications: left off: 6xHis, N-terminal, cleaved
Kd [2]: 4.43 µM

B3: Vps4^81-437: Vps4 construct residues 81-437 (pET151-Vps4(81-437)) (protein, UniProt P52917 81-437, looked up, fragment)
chain: AAKKSPSAGSGSNGGNKKISQEEGEDNGGEDNKKLRGALSSAILSEKPNVKWEDVAGLEGAKEALKEAVILPVKFPHLFKGNRKPTSGILLYGPPGTGKSYLAKAVATEANSTFFSVSSSDLVSKWMGESEKLVKQLFAMARENKPSIIFIDEVDALTGTRGEGESEASRRIKTELLVQMNGVGNDSQGVLVLGATNIPWQLDSAIRRRFERRIYIPLPDLAARTTMFEINVGDTPCVLTKEDYRTLGAMTEGYSGSDIAVVVKDALMQPIRKIQSATHFKDVSTEDDETRKLTPCSPGDDGAIEMSWTDIEADELKEPDLTIKDFLKAIKSTRPTVNEDDLLKQEQFTRDFGQEGN
ATPase activity, average ([1]; 0.05 μM Vps4 subunits): -6.194 ATP/min/Vps4 hexamer
ATPase activity, average ([1]; 1 μM Vps4 subunits): 456.338 ATP/min/Vps4 hexamer

B4: Vps4 full-length: yeast AAA ATPase Vps4, full-length (pET151-Vps4) (protein)
chain 1: MSTGDFLTKGIELVQKAIDLDTATQYEEAYTAYYNGLDYLMLALKYEKNPKSKDLIRAKFTEYLNRAEQLKKHLESEEANAAKKSPSAGSGSNGGNKKISQEEGEDNGGEDNKKLRGALSSAILSEKPNVKWEDVAGLEGAKEALKEAVILPVKFPHLFKGNRKPTSGILLYGPPGTGKSYLAKAVATEANSTFFSVSSSDLVSKWMGESEKLVKQLFAMARENKPSIIFIDEVDALTGTRGEGESEASRRIKTELLVQMNGVGNDSQGVLVLGATNIPWQLDSAIRRRFERRIYIPLPDLAARTTMFEINVGDTPCVLTKEDYRTLGAMTEGYSGSDIAVVVKDALMQPIRKIQSATHFKDVSTEDDETRKLTPCSPGDDGAIEMSWTDIEADELKEPDLTIKDFLKAIKSTRPTVNEDDLLKQEQFTRDFGQEGN
chain 2: MASNAARVVATAKDFDKVGLGIIGYYLQLYAVELILSEEDRSQEMTALATELLDTIEAFKKEIGGESEAEDSDKSLHVMNTLIHDQEKAKIYMLNFTMSLYNEKLKQLKDGPWDVMLKRSLWCCIDLFSCILHLWKENISETSTNSLQKRIKYCKIYLSKLAKGEIGSSDEKTLDYADFADDSEEIKDEDVDHQTSDLENNNNDKVEGLAPKDQTTSYEPVDEVPEFIDDADSVNEEEQTVDKNEDAITKDEQQVVKKEVDLTRPSAPSEPAAAEHKSYTKDELTKIMDRASKIEQIQKLAKYAISALNYEDLPTAKDELTKALDLLNSI
modifications: left off: 6xHis, N-terminal, cleaved | 6xHis, N-terminal, cleaved
ATPase activity, average ([1]; 0.05 μM Vps4 subunits): 19.8582 ATP/min/Vps4 hexamer
ATPase activity, average ([1]; 1 μM Vps4 subunits): 701.731 ATP/min/Vps4 hexamer

Source: PMC5413351, “Structural basis of protein translocation by the Vps4-Vta1 AAA ATPase” (eLife, 2017)
